For 15 molecules, EC50 results are on record in US20170267766A1 (PIERRE FABRE MEDICAMENT, published 2017).

The target of test [1] is T1, monkey IGF-1R (on COS-7 cells) (African green monkey).
T1 construct: whole, on cells
Put plainly: FACS titration, Cos-7. The method, then:
(§1) The binding properties of the humanized variants were evaluated by FACS analyses on the human MCF-7 breast adenocarcinoma cell line and the monkey cell line Cos-7 using increasing antibody concentrations. For that purpose, cells (1×10⁶ cells/ml) were incubated with anti-IGF-1R humanized antibodies for 20 min. at 4° C. in FACS buffer (PBS, 0.1% BSA, 0.01% NaN3). They were then washed 3 times and incubated with the appropriate secondary antibody coupled with Alexa 488 for 20 additional minutes at 4° C. in the dark before being washed 3 times in FACS buffer. The binding of anti-IGF-1R antibodies was immediately performed on viable cells which were identified using propidium iodide (that stains dead cells). The EC₅₀ of binding expressed in molarity (M) was calculated using a nonlinear regression analysis (GraphPad Prims 4.0).

Test [2] addresses T2, human IGF-1R (native, on cells) (human, UniProt P08069 31-1367).
T2 construct: also called hIGF-1R; native IGF-1R on MCF-7 cells
Nature of the test: FACS titration, MCF-7. Here is the method: as §1

B1: hz208F2 H070/L018 (antibody, human IgG1, kappa, V domains shown)
VH: QVQLVQSGAEVKKPGASVKVSCKASGYTFTSYYMHWVRQAPGQGLEWMGWIWPGDGSTKYAQKFQGRVTMTRDTSTSTVYMELSSLRSEDTAVYYCASPMITPNYAMDYWGQGTLVTVSS
VL: DIQMTQSPSSLSASVGDRVTITCRASQDISKYLNWYQQKPGKAPKLLIYYTSRLQSGVPSRFSGRGSGTDYSLTISSLQPEDFATYFCQQGSTLPYTFGGGTKVEIKR
notes: humanized 208F2 variant
As for B1, the EC50 (in general, the concentration that produces a half-maximal response) in test [1] worked out at 730 pM; in test [2] it was 460 pM.

B2: hz208F2 H057/L018 (antibody, human IgG1, kappa, V domains shown)
VH: QVQLVQSGAEVKKPGASVKVSCKASGYTFTSYYIHWVRQAPGQGLEWMGWIWPGDGSTKYAQKFQGRVTMTRDKSTNTVYMELSSLRSEDTAVYYCASPMITPNYAMDYWGQGTLVTVSS
VL: DIQMTQSPSSLSASVGDRVTITCRASQDISKYLNWYQQKPGKAPKLLIYYTSRLQSGVPSRFSGRGSGTDYSLTISSLQPEDFATYFCQQGSTLPYTFGGGTKVEIKR
notes: humanized 208F2 variant
Consider B2, for which the EC50 in test [1] was determined as 830 pM; in test [2], 580 pM.

B3: hz208F2 H047/L018 (antibody, human IgG1, kappa, V domains shown)
VH: QVQLVQSGAEVKKPGASVKVSCKASGYTFTSYYIHWVRQAPGQGLEWMGWIWPGDGSTKYAQKFQGRVTMTRDTSSNTVYMELSSLRSEDTAVYYCASPMITPNYAMDYWGQGTLVTVSS
VL: DIQMTQSPSSLSASVGDRVTITCRASQDISKYLNWYQQKPGKAPKLLIYYTSRLQSGVPSRFSGRGSGTDYSLTISSLQPEDFATYFCQQGSTLPYTFGGGTKVEIKR
notes: humanized 208F2 variant
For the molecule B3, the figures for the EC50 in test [1] and in test [2] were 920 pM and 770 pM, respectively.

B4: hz208F2 H051/L018 (antibody, human IgG1, kappa, V domains shown)
VH: QVQLVQSGAEVKKPGASVKVSCKASGYTFTSYYMHWVRQAPGQGLEWMGWIWPGDGSTKYAQKFQGRVTMTRDTSSNTVYMELSSLRSEDTAVYFCASPMITPNYAMDYWGQGTLVTVSS
VL: DIQMTQSPSSLSASVGDRVTITCRASQDISKYLNWYQQKPGKAPKLLIYYTSRLQSGVPSRFSGRGSGTDYSLTISSLQPEDFATYFCQQGSTLPYTFGGGTKVEIKR
notes: humanized 208F2 variant
Turning to B4, the EC50 in test [1] came out at 720 pM; in test [2] it was 570 pM.

B5: hz208F2 H076/L018 (antibody, human IgG1, kappa, V domains shown)
VH: QVQLVQSGAEVKKPGASVKVSCKASGYTFTSYYIHWVRQAPGQGLEWMGWIWPGDGSTKYAQKFQGRVTMTRDTSTSTVYMELSSLRSEDTAVYYCASPMITPNYAMDYWGQGTLVTVSS
VL: DIQMTQSPSSLSASVGDRVTITCRASQDISKYLNWYQQKPGKAPKLLIYYTSRLQSGVPSRFSGRGSGTDYSLTISSLQPEDFATYFCQQGSTLPYTFGGGTKVEIKR
notes: humanized 208F2 variant
For B5, the concentration giving a half-maximal response (EC50) in test [1] came to 1100 pM; in test [2], 650 pM.

B6: hz208F2 H037/L021 (antibody, human IgG1, kappa, V domains shown)
VH: QVQLVQSGAEVKKPGASVKVSCKASGYTFTSYYMHWVRQAPGQGLEWMGWIWPGDGSTKYAQKFQGRVTMTRDKSSSTVYMELSSLRSEDTAVYFCASPMITPNYAMDYWGQGTLVTVSS
VL: DIQMTQSPSSLSASVGDRVTITCRASQDISKYLNWYQQKPGKAPKLLIYYTSRLHSGVPSRFSGRGSGTDFSLTISSLQPEDFATYFCQQGSTLPYTFGGGTKVEIKR
notes: humanized 208F2 variant
Turning to B6, the values for the EC50 in test [1] and in test [2] were 820 pM and 480 pM, respectively.

B7: hz208F2 H076/L021 (antibody, human IgG1, kappa, V domains shown)
VH: QVQLVQSGAEVKKPGASVKVSCKASGYTFTSYYIHWVRQAPGQGLEWMGWIWPGDGSTKYAQKFQGRVTMTRDTSTSTVYMELSSLRSEDTAVYYCASPMITPNYAMDYWGQGTLVTVSS
VL: DIQMTQSPSSLSASVGDRVTITCRASQDISKYLNWYQQKPGKAPKLLIYYTSRLHSGVPSRFSGRGSGTDFSLTISSLQPEDFATYFCQQGSTLPYTFGGGTKVEIKR
notes: humanized 208F2 variant
Turning to B7, a half-maximal response in test [1] (EC50) required 1100 pM.

B8: hz208F2 H052/L021 (antibody, human IgG1, kappa, V domains shown)
VH: QVQLVQSGAEVKKPGASVKVSCKASGYTFTSYYMHWVRQAPGQGLEWMGWIWPGDGSTKYAQKFQGRVTMTRDTSTSTVYMELSSLRSEDTAVYFCASPMITPNYAMDYWGQGTLVTVSS
VL: DIQMTQSPSSLSASVGDRVTITCRASQDISKYLNWYQQKPGKAPKLLIYYTSRLHSGVPSRFSGRGSGTDFSLTISSLQPEDFATYFCQQGSTLPYTFGGGTKVEIKR
notes: humanized 208F2 variant
Turning to B8, the values for the EC50 in test [1] and in test [2] were 1200 pM and 570 pM, respectively.

B9: hz208F2 H049/L021 (antibody, human IgG1, kappa, V domains shown)
VH: QVQLVQSGAEVKKPGASVKVSCKASGYTFTSYYMHWVRQAPGQGLEWMGWIWPGDGSTKYAQKFQGRVTMTRDKSSSTVYMELSSLRSEDTAVYYCASPMITPNYAMDYWGQGTLVTVSS
VL: DIQMTQSPSSLSASVGDRVTITCRASQDISKYLNWYQQKPGKAPKLLIYYTSRLHSGVPSRFSGRGSGTDFSLTISSLQPEDFATYFCQQGSTLPYTFGGGTKVEIKR
notes: humanized 208F2 variant
B9 registered an EC50 in test [1] of 850 pM.

B10: hz208F2 H071/L018 (antibody, human IgG1, kappa, V domains shown)
VH: QVQLVQSGAEVKKPGASVKVSCKASGYTFTSYYMHWVRQAPGQGLEWMGWIWPGDGSTKYAQKFQGRVTMTRDTSTNTVYMELSSLRSEDTAVYYCASPMITPNYAMDYWGQGTLVTVSS
VL: DIQMTQSPSSLSASVGDRVTITCRASQDISKYLNWYQQKPGKAPKLLIYYTSRLQSGVPSRFSGRGSGTDYSLTISSLQPEDFATYFCQQGSTLPYTFGGGTKVEIKR
notes: humanized 208F2 variant
B10: the EC50 in test [1] came out at 1100 pM; in test [2], 550 pM.

B11: hz208F2 H052/L018 (antibody, human IgG1, kappa, V domains shown)
VH: QVQLVQSGAEVKKPGASVKVSCKASGYTFTSYYMHWVRQAPGQGLEWMGWIWPGDGSTKYAQKFQGRVTMTRDTSTSTVYMELSSLRSEDTAVYFCASPMITPNYAMDYWGQGTLVTVSS
VL: DIQMTQSPSSLSASVGDRVTITCRASQDISKYLNWYQQKPGKAPKLLIYYTSRLQSGVPSRFSGRGSGTDYSLTISSLQPEDFATYFCQQGSTLPYTFGGGTKVEIKR
notes: humanized 208F2 variant
B11: the EC50 in test [1] was found to be 990 pM; in test [2], 840 pM.

B12: hz208F2 H049/L018 (antibody, human IgG1, kappa, V domains shown)
VH: QVQLVQSGAEVKKPGASVKVSCKASGYTFTSYYMHWVRQAPGQGLEWMGWIWPGDGSTKYAQKFQGRVTMTRDKSSSTVYMELSSLRSEDTAVYYCASPMITPNYAMDYWGQGTLVTVSS
VL: DIQMTQSPSSLSASVGDRVTITCRASQDISKYLNWYQQKPGKAPKLLIYYTSRLQSGVPSRFSGRGSGTDYSLTISSLQPEDFATYFCQQGSTLPYTFGGGTKVEIKR
notes: humanized 208F2 variant
B12: the results for the EC50 in test [1] and in test [2] were 690 pM and 490 pM, respectively.

B13: hz208F2 H068/L018 (antibody, human IgG1, kappa, V domains shown)
VH: QVQLVQSGAEVKKPGASVKVSCKASGYTFTSYYMHWVRQAPGQGLEWMGWIWPGDGSTKYAQKFQGRVTMTRDTSTNTVYMELSSLRSEDTAVYFCASPMITPNYAMDYWGQGTLVTVSS
VL: DIQMTQSPSSLSASVGDRVTITCRASQDISKYLNWYQQKPGKAPKLLIYYTSRLQSGVPSRFSGRGSGTDYSLTISSLQPEDFATYFCQQGSTLPYTFGGGTKVEIKR
notes: humanized 208F2 variant
For B13, the EC50 in test [1] is 1200 pM; in test [2] it was 1100 pM.

B14: hz208F2 H077/L018 (antibody, human IgG1, kappa, V domains shown)
VH: QVQLVQSGAEVKKPGASVKVSCKASGYTFTSYYIHWVRQAPGQGLEWMGWIWPGDGSTKYAQKFQGRVTMTRDTSTSTVYMELSSLRSEDTAVYFCASPMITPNYAMDYWGQGTLVTVSS
VL: DIQMTQSPSSLSASVGDRVTITCRASQDISKYLNWYQQKPGKAPKLLIYYTSRLQSGVPSRFSGRGSGTDYSLTISSLQPEDFATYFCQQGSTLPYTFGGGTKVEIKR
notes: humanized 208F2 variant
As to B14, the results for the concentration giving a half-maximal response (EC50) in test [1] and in test [2] were 1100 pM and 770 pM, respectively.

B15: hz208F2 H037/L018 (antibody, human IgG1, kappa, V domains shown)
VH: QVQLVQSGAEVKKPGASVKVSCKASGYTFTSYYMHWVRQAPGQGLEWMGWIWPGDGSTKYAQKFQGRVTMTRDKSSSTVYMELSSLRSEDTAVYFCASPMITPNYAMDYWGQGTLVTVSS
VL: DIQMTQSPSSLSASVGDRVTITCRASQDISKYLNWYQQKPGKAPKLLIYYTSRLQSGVPSRFSGRGSGTDYSLTISSLQPEDFATYFCQQGSTLPYTFGGGTKVEIKR
notes: humanized 208F2 variant
B15: the results for the EC50 in test [1] and in test [2] were 740 pM and 490 pM, respectively.
